This experiment concerns the target T1, GST-tagged VPS29C (Homo sapiens, UniProt Q9UBQ0).
T1 construct: made in house; host or cells: E. coli BL21 (DE3)
Put plainly: Isothermal titration calorimetry (ITC) of peptides with GST-VPS29C. The experiment is classed as binding. The note with it: 25 °C, single-site model. On the procedure: All the bacterial constructs were expressed in BL21 (DE3) competent cells using the standard autoinduction method as described previously. Cell cultures were harvested by centrifugation at 6,000 × g for 5 min at 4 °C and the cell pellets were then stored at −80 °C until cell lysis. To obtain individual Retromer subunit including VPS26A, GST-VPS29B, and GST-VPS29C, the frozen cell pellet was resuspended in protein buffer (50 mM Tris-HCl pH 7.5, 200 mM NaCl, 2 mM β-mercaptoethanol) supplemented with 50 μg/mL benzamidine, 100 units of DNase I. In all cases, the resuspended cells were lysed through a Constant System TS-series high pressure cell disruptor. The soluble homogenate cleared by centrifugation was loaded onto either Talon resin (Clontech) for His-tagged VPS26A or Glutathione Sepharose (GE Healthcare) for GST-tagged VPS29B/VPS29C. The fusion-tagged containing proteins eluted from the resin were then further purified using size exclusion chromatography (SEC) on a HiLoad® 16/600 Superdex 200 or Superdex 75 column equilibrated with protein buffer. For Retromer, the soluble homogenate was first loaded onto Talon resin (Clontech) followed by glutathione Sepharose (GE healthcare) to obtain the correct stoichiometry ratio of the Retromer complex. Removal of the GST tag from the constructs was performed using an on-column cleavage approach with PreScission protease. The fusion tag free protein was further purified using SEC on a HiLoad® 16/600 Superdex 200 column as described above. Protein integrity was validated using SDS-PAGE gel and concentration was measured using Nanodrop at OD280.
All microcalorimetry experiments were carried out at 25 °C using a PEAQ ITC (Malvern, UK) in protein buffer. […] In the macrocyclic peptide experiment, the equivalent percentage (v/v) of DMSO was added into the target protein to avoid buffer mismatch. All ITC experiments were performed with a single injection of 0.4 μL followed by a series of 12 injections of 3.2 μL each, spaced 180 s apart, and stirred at 750 rpm. To calculate the heat exchange of interactions, the observed peaks were integrated with the subtraction of heat of dilution from the background. The thermodynamic parameters including Kd, ΔH, ΔG, and −TΔS were obtained by fitting and normalizing the data to a single-site binding model using Malvern software package. The stoichiometry was adjusted initially, and if the value was near 1, N was set to exactly 1.0 for computation. To ensure the data were reproducible, each experiment was run at least twice.
(ITC needs no label: the signal is the heat of the interaction.)

[1] abbreviates: 300 μM peptide into 10 μM GST-VPS29C.

As for “VPS35L 28-37: natural peptide of the amino-terminal region of VPS35L containing a Pro-Leu motif (EFGDYHPLKP)”, the Kd result (300 μM peptide titrated into 10 μM GST-VPS29C, protein buffer (50 mM Tris-HCl pH 7.5, 200 mM NaCl, 2 mM β-mercaptoethanol), each experiment run at least twice) was “No binding detected”.
“VPS35L 16-38: natural peptide of the amino-terminal region of VPS35L containing a Pro-Leu motif (EFASCRLEAVPLEFGDYHPLKPI)”: under setting [1], the “-TΔS” value was 4.26 ± 2.04 kcal/mol, the ΔG is -5.26 ± 0.15 kcal/mol and the ΔH is on record as -9.54 ± 2.50 kcal/mol.

The values are drawn from article PMC12260524, “Identification of a VPS29 isoform with restricted association to Retriever and Retromer accessory proteins through autoinhibition” (Proceedings of the National Academy of Sciences of the …, 2025).
